The nature of this series: soluble on expression in E. coli; label from the status in PepcDB or PDB records.
For the sequence “MAHHHHHHMKFIPLDSFSALNSLLQGVEAQGCCITMRLEAYTCRHTKEERQIANSIACYQNNVQLTPPISPLPTIGAYAGCTQEALPPLVLGGSAENVAASYSLVSPNEIDDRLVYFVAALNTVYESDGYDFSVLRENDFVRYTEPQFRTEVSSTLQSLPEQCRPAVQRFWPTIEEVVENAESGCEYYEFRCPSCNPLADTTVYARHYFVYNRRKKVLVLLVEYGESNPYRGDDGLPHAGDPTSAWDAESPTYASTPDLGEEGEAYDGGKNRQFYGYY”, the “soluble on expression in E. coli” value is reported as “soluble”.

For “VKVSKECEKIDIILTDGVIILGKIKGQIDSKSLHEHEKKPFSQSGTMNPETSRLLVNLSRPKKEVLDPFVGTGSILIEARWLNYECIGSDLDKAMLQKTKINLNYFNYYCSLLFSSATNLPFRQITSIATDPPYGRSTKNKGAELTQLYEEFFSSASETLTKGGFLVFATDSRFNFIDKLKENSFIIKGLHYLYSHKSLTRAIYVVQKK”, the “soluble on expression in E. coli” value was “not soluble”.

On to “MSEKMVAIMKTKPGYGAELVEVDVPKPGPGEVLIKVLATSICGTDLHIYEWNEWAQSRIKPPQIMGHEVAGEVVEIGPGVEGIEVGDYVSVETHIVCGKCYACRRGQYHVCQNTKIFGVDTDGVFAEYAVVPAQNIWKNPKSIPPEYATLQEPLGNAVDTVLAGPISGKSVLITGAGPLGLLGIAVAKASGAYPVIVSEPSDFRRELAKKVGADYVINPFEEDVVKEVMDITDGNGVDVFLEFSGAPKALEQGLQAVTPAGRVSLLGLYPGKVTIDFNNLIIFKALTIYGITGRHLWETWYTVSRLLQSGKLNLDPIITHKYKGFDKYEEAFELMRAGKTGKVVFMLK”, for which the “soluble on expression in E. coli” value was “soluble”.

For “MGSDKIHHHHHHMGKPRIVILGGGFGGLYTARALHRTFRDTAEIEVITAENYFVFQPLLPEVGAGSVTPIHATSPYRFLLKGVGIRKAMIDSVDFAAKRVTVFQGVQRRPTEVPYDHLVVALGQTVDLSRTPGLEAHALTMKTLEDARRLRAHVIERLEHADITNLPEVKRGALTFTVIGGGFSGIETVGEMAELIDRSLKYYPNVSRDEVRIIVLEFADKVLAEMPEKLRAYAQAQLEKRGVEVCLNTGIASATGTQITTTDGDVIDTRTVVATIGNAPAPVVKRMDLPLTQGRIAVERDLSVPGRDGVWSLGDCALIPMVEDANAREDYAPPTAQFAVREAKQLAANIKRAVDGTALKPFEYTSKGSMASLGARRGIADVMGIRLTGFLAWVLWRAYYVAFLPGFPAKVWVLSHWVLDWVTPRSLVNLSSPKTDASRHIRYAKGDRIYETGNRADTFFTIIEGAVEITNAKGHDGQPTTRRIEPGGHFGERLILGATRRVATARALEDTVVLAMGRDEFLKLTRALPALRDYFEAHLAEKGLDWAPEPDERRDAAE”, the “soluble on expression in E. coli” value was “not soluble”.

“MGSDKIHHHHHHMALMTNKTRALLIGGHGKVALLATPMLIDASVQVTSMYRNPDHRSEIEALGATTLERDVTTLSVEDWADLLKDFDVVVWSAGNGGKNGADATYAIDRDAAIASIDGAASLGEKAPRYIMVSYIGSSTHTIDPSASFYPYAESKKAADEHLSSTNLDYLILAPAALTLDEVNGVEVIADTNEAAAGRTTSRVLVAEVITEFVVRDFPQTRVLPFVDGESPVSSIS”: the “soluble on expression in E. coli” value was “not soluble”.

Turning to “SNAMSVVIYHNPKCSKSRETLALLENQGIAPQVIKYLETSPSVEELKRLYQQLGLNEVRAMMRCKEELYKELNLGDSQLSDDALFAAMAEHPKLIERPIVVCNGQARHGRPPEQVLEIL”, the “soluble on expression in E. coli” value is given as “soluble”.

In the case of “NTYAPIETLKRLYSEAFRLPDVVGISIGTRIDSVNHEILDFLGEYAREKEVWIEYGIQSIHDRTLEGINRGHDSSEMEYWIKETQNRGIKVCVHLIYGLPGESEEMMLETLDKMIEWQAESIKIHPLYVMAHTALATLYKKGEYTPITLERYAWLIGESMKRIPK”, the “soluble on expression in E. coli” value is “not soluble”.

Turning to “MGSDKIHHHHHHMTPTAFNTGRVQVNKTIAELRSLGKDARERVPFSQLGQYQPLDRDSNQLMDRIRRLLIPELLPERTRRMAASPFAFFRGTAELMEADLRQQPNSTIETFVCGDAHIGNFGFYASPERRLLFDLNDFDEAGINPWEWDLKRLLVSVLLAAQANGIKEKKIKQFLPTVAASYRKSMKQMFTQTTLARFYPLNDVEKLIQASALTDADSQLLMTIINRASKRDSEQVVRKFTTLDSRGNLCFRENAPKTTHVTDDVTTHIATYFAAYRQTVRPDVNLLLSQYHLTDVVRHSVGVGSFGSRCYLVLLTSIDGSHLVLQIKEALPTRQQGSQTLAQLTVAQEQTEGQRIVDCQKILQSASDSFLGYFAGNQHSFYVRQFRDMKESIDLTQLDWGQLQTYANTCAWTLAIAHCQSPTAAMIRGYIGGGKQFDEQLAAFASAYAQQVQTDYESFVAYRLPTKQP”, the “soluble on expression in E. coli” value is recorded as “not soluble”.

“MAHHHHHHMYAGFPRLNVTEAQETVDLDFELTNEKGCVKVTEFPVPKVVNLSFPAVCALLYNARTATSSRNIFGSVIGLQLQDTVEVTDVKTNPSIDIEEDDRMTEEERMERVRKERKLLDADKAIFENMYNQENLDTNVIGQFVVSSARFNPFSTRTMRKLQELHRESLPAILLTYDPFRTGLLGRPHIRAYTPTAAYYKYDSLVSTERGYQRRRSLAQYAKESGITKEGVLHEIPVKLEVDAFHKLNLMNVPPTAVGDSFKAIQSMAVSNYIEALLSSIRNNTDQLKQKLDYEGNVKDNGNVPVGQDAETMLLMKHVRDQTDHLDALCDSALLYSSLLRDL”: the “soluble on expression in E. coli” value was “soluble”.

On to “MDQNRGSDVGFAVPMLPVNYASATQKMSTLASTSSAGASSSTGSSNQQQQQAAAVIRRRRFSTAKIQPTRIKKVMQSDEDIGRMVQSVPVSIGRAMEHFAEKFLQAAAEATQFTSSKTLNPQHMKQAVLNTPHFSFLESVFKDVALPQQASELNTARTGMTLRGQQMLQEQQNSDFASAILANAQMQMMQMDQQALKQEDGTISPYLVDPQSPAAPLPLYLQGIPSNYPVVQELTATVPLSPSTPTTQLVNGMLGMLKYSKKDSEGQRLTGLKRASTDGDGEDRPKRGRPKKLKPEKCIDDDLYEEASRNIAKEDKDRELMPPPALPIGRP”, for which the “soluble on expression in E. coli” value is “not soluble”.

“MHDRSYTLDDVTVAMGTYNEAAAIDTVLTDIADATDDRARVVCVDGSSDRTPEIAREHGATVIEQEPQGYGVAVAAALDAADTPVVITTDCDNTYPMERIPAFLARINEGYDVVSGDRLYWGADTMPAFNRLGNAAFAAITSLLVGERVHDTTTGMRAYRAPVIDAIDWTQNTGLSAELLIRPLCRNYDVIEEPIGYADRLGDTKLDPLEGGAEILGSILKVCAEERLPLEHHHHHH”: the “soluble on expression in E. coli” value is recorded as “not soluble”.

Take “MLKSIILLICAHCAFSDRLDAGSQADCVAAANKIYNNEWGFDHKLVYDKELEPFAAETPCGIAYLQNGLAEVGSGGAHTSVNLREEHTRIACVPKKCGGVEVACAVGGPSMALNLKRKIRKLRQIRCLRTFGATVTLKN”: the “soluble on expression in E. coli” value is recorded as “not soluble”.

For the sequence “MAEYLVPKSAVVFEEEIKKSRFITYLQHTEGLEDARAFWAKIKQEHPNARHHCWAAVAGKPTDSLQLGFSDDGEPAGTAGKPMLSALQGSQLGEISAVVVRYYGGILLGTGGLVRAYGNGVQQALKLIESEIKVERTLFKLDCDYGQLRLVQQLCEKYQVEILSQGFQANIHLILGISEKTIEAFSSELTEKSSGRLVIQLLEIGELEHHHHHH”, the “soluble on expression in E. coli” value is listed as “soluble”.

Take “MGSIGSMGKPIEGFLVAAIQFPVPIVNSRKDIDHNIESIIRTLHATKAGYPGVELIIFPEYSTQGLNTAKWLSEEFLLDVPGKETELYAKACKEAKVYGVFSIMERNPDSNKNPYNTAIIIDPQGEIILKYRKLFPWNPIEPWYPGDLGMPVCEGPGGSKLAVCICHDGMIPELAREAAYKGCNVYIRISGYSTQVNDQWILTNRSNAWHNLMYTVSVNLAGYDNVFYYFGEGQICNFDGTTLVQGHRNPWEIVTGEIYPKMADNARLSWGLENNIYNLGHRGYVAKPGGEHDAGLTYIKDLAAGKYKLPWEDHMKIKDGSIYGYPTTGGRFGK”: the “soluble on expression in E. coli” value is “soluble”.

As for “GFIDTHVHSGHRALHKLLADGGRPDLFGQPYMDVTIARDGTRIKGYPNYLSREEAAVDPGIALHAAFTVAELLRNGVTTFVELGGHVMVQEALWRECERLGVRGYLGAGYDSGRWAADDQGRLRRVPYPDGGDHLFEEAVAFIKRVQAAGNDLVNGILVPREVENCSVDILRRTVQAAQELGVPMATHAGYNVIEFYETVREHRMTPIELLHSVGMLGPRLNIGHANLISDSPRLNYSGGRDLALMGEHRVSISHCPINIVRRARVLDSWKKYREAGVNLTIGSDTYPRDMVMNMRTASYHGKVMSHDLTAASAAEVFEAATLGGARSLGRTDI”, the “soluble on expression in E. coli” value is “not soluble”.

The values are drawn from the DeepSol protein solubility set.
